Measurements taken from doi:10.1101/2025.07.14.664805.

Each substance was assayed against B. mori CS-1 (Centromeric Subunit protein 1) (Bombyx mori) (assay: SEC-MALS).

Stoichiometry N, 1:
B. mori CS-3 (Centromeric Subunit protein 3) (natural protein)
B. mori CS-2 (Centromeric Subunit protein 2) (natural protein)
B. mori CS-4 (Centromeric Subunit protein 4) (natural protein)
